Assay [1] has as its target T1, SARS-CoV-2 receptor binding domain, native (501N) (SARS-CoV-2, UniProt P0DTC2 330-532).
T1 construct: range 330-532
Briefly: BLI, RBD immobilised on AR2G biosensor, 1:1 fit. A general note: BLI is a label-free optical method that tracks binding on a fibre tip over time.

The target in assay [2] is T2, SARS-CoV-2 spike receptor binding domain, native (SARS-CoV-2, UniProt P0DTC2 330-532).
T2 construct: range 330-532
Kind of assay: BLI, RBD on AR2G biosensor, mAb as analyte.

The target in assay [3] is T3, SARS-CoV-2 receptor binding domain (RBD), native (SARS-CoV-2, UniProt P0DTC2 330-532).
T3 construct: range 330-532
Kind of assay: crystal structure.

B1: Fab of antibody 88 (Fab, V domains shown)
VH: QLQLQESGPGLVKPSQTLSLTCTVSGGSISSGSYNWTWIRQPAGKGLEWIGRIYNSGSTNYNPSLKSRVTISVDTSKNQLSLKVRSVTAADTAVYYCARHCSGGTCYPKYYYGMDVWGQGTTVTVSS
VL: QSALTQPPSVSEAPRQRVTISCSGSSSNIGNNAVNWYQQFPGKAPKLLIYYDDLLPSGVSDRFSGSKSGTSASLAISGVQSEDEADYYCAAWDDSLNVVVFGGGTKLTVL
notes: also called 88 Fab; Fab 88
As a reminder, the Kd is the free concentration of one partner at which half of the binding sites on the other are occupied at equilibrium, for simple one-to-one binding. The low end stands for tighter binding, the high end for weaker binding. In assay [1], B1 showed an equilibrium dissociation constant (Kd) of 0.64 nM.

B2: antibody 88 (antibody, V domains shown)
VH: QLQLQESGPGLVKPSQTLSLTCTVSGGSISSGSYNWTWIRQPAGKGLEWIGRIYNSGSTNYNPSLKSRVTISVDTSKNQLSLKVRSVTAADTAVYYCARHCSGGTCYPKYYYGMDVWGQGTTVTVSS
VL: QSALTQPPSVSEAPRQRVTISCSGSSSNIGNNAVNWYQQFPGKAPKLLIYYDDLLPSGVSDRFSGSKSGTSASLAISGVQSEDEADYYCAAWDDSLNVVVFGGGTKLTVL
notes: also called mAb 88
B2 registered a Kd in assay [2] of 2.9 nM.

B3: Fab of antibody 269 (Fab, V domains shown)
VH: QVQLVESGGGLIQPGGSLRLSCAASGLTVNRNYMSWIRQAPGKGLEWVSVIYSGGSTFYADSVKGRFTISRDNSKNTLSLQMNSLRAEDTAIYYCARDFYEGSFDIWGQGTMVTVSS
VL: AIQLTQSPSFLSASIGDRVTITCRASQGISSYLAWYQQKPGKAPKLLIYAASTLQSGVPSRFSGSGSGTEFTLTISSLQPEDFASYYCQQLNSYPAPVFGPGTKVDIK
notes: also called 269 Fab; COVOX-269
In assay [1], B3 yielded a Kd of 1.59 nM.

B4: antibody 269 (antibody, V domains shown)
VH: QVQLVESGGGLIQPGGSLRLSCAASGLTVNRNYMSWIRQAPGKGLEWVSVIYSGGSTFYADSVKGRFTISRDNSKNTLSLQMNSLRAEDTAIYYCARDFYEGSFDIWGQGTMVTVSS
VL: AIQLTQSPSFLSASIGDRVTITCRASQGISSYLAWYQQKPGKAPKLLIYAASTLQSGVPSRFSGSGSGTEFTLTISSLQPEDFASYYCQQLNSYPAPVFGPGTKVDIK
notes: also called mAb 269
With B4, binding in assay [2] was characterised by a dissociation constant (Kd) of 0.76 nM.

B5: Fab of antibody 175 (Fab, V domains shown)
VH: EVQLVESGGGLIQPGGSLRLSCAASGLTVSRNYMSWVRQAPGKGLEWVSLIYSGGSTYYADSVKGRFTISRDNSKNTLYLQMNSLRAEDTAVYYCARDLRGEVWGQGTMVTVSS
VL: not shown
As for B5, in assay [1], the equilibrium dissociation constant (Kd) came to 0.97 nM.

B6: antibody 175 (antibody, V domains shown)
VH: EVQLVESGGGLIQPGGSLRLSCAASGLTVSRNYMSWVRQAPGKGLEWVSLIYSGGSTYYADSVKGRFTISRDNSKNTLYLQMNSLRAEDTAVYYCARDLRGEVWGQGTMVTVSS
VL: not shown
notes: also called mAb 175
Regarding B6, in assay [2], the Kd stood at 1.36 nM.

B7: Fab 75 (Fab, V domains shown)
VH: QVQLVESGGGVVQPGRSLRLSCAASGFTFNNYPLHWVRQAPGKGPEWVAVISQDGGNKYYVDSVKGRFTISRDNSKNTLYLQMNNLRAEDTALYYCARDVVVVVAARNHYYNGMDVWGQGTTVTVSS
VL: DIQLTQSPSSVSASVGDRVTITCRASQGISSWLAWYQQKPGKAPKLLIYAVSSLQSGVPSRFSGSGSGTDFTLTISSLQPEDFATYYCQQAKSFPFTFGPGTKVEIK
notes: Fab
For B7, the binding result in assay [3] is reported as “binds”.

B8: Fab of antibody 158 (Fab, V domains shown)
VH: EVQLLESGGDLIQPGGSLRLSCAASGVTVSSNYMSWVRQAPGKGLEWVSIIYPGGSTFYADSVKGRFTISRDNSKNTLYLQMHSLRAEDTAVYYCARDLGSGDMDVWGKGTTVTVSS
VL: DIVMTQSPSFLSASVGDRVTITCRASQGISSYLAWYQQKPGKAPKLLIQAASTLQSGVPSRFSGSGSGTEFTLTISSLQPEDFATYYCQQLNSYRYTFGQGTKVEIK
notes: also called 158 Fab; Fab 158
In assay [1], B8 registered a Kd of 0.53 nM.

B9: antibody 158 (antibody, V domains shown)
VH: EVQLLESGGDLIQPGGSLRLSCAASGVTVSSNYMSWVRQAPGKGLEWVSIIYPGGSTFYADSVKGRFTISRDNSKNTLYLQMHSLRAEDTAVYYCARDLGSGDMDVWGKGTTVTVSS
VL: DIVMTQSPSFLSASVGDRVTITCRASQGISSYLAWYQQKPGKAPKLLIQAASTLQSGVPSRFSGSGSGTEFTLTISSLQPEDFATYYCQQLNSYRYTFGQGTKVEIK
notes: also called mAb 158
Turning to B9, in assay [2], the dissociation constant Kd was 1.89 nM.

B10: antibody 278 (antibody, V domains shown)
VH: QVQLVQSGAEVKKPGASVKVSCKASGYIFIRYGISWVRQAPGQGLEWMGWISANNGYTNYAQKLQGRVTMTTDTSTSTAYMELRSLRSDDTAVYYCARDGGILTGYLDYFDHWGQGTLVTVSS
VL: DIQMTQSPSSLSASVGDRLTITCRASQSIASYLNWYQQKPGKAPKLLIYAASSLQSGVPSRFSGSGSGTDFTLTISSLQPEDFATYHCQQSYSTLGITFGPGTKVDIK
notes: also called mAb 278
In turn, B10 had a Kd in assay [2] of 4.16 nM. Against the preceding molecule, the Kd is about 2.2-fold higher.

B11: Fab of antibody 316 (Fab, V domains shown)
VH: not shown
VL: QAVLTQPPSASGSPGQSVTISCTGTSSDVGGYNYVSWYQQHPGKAPKLMIYEVSKRPSGVPDRFSGSKSGNTASLTVSGLQAEDEADYYCSSYAGSNHWVFGGGTKLTVL
notes: also called 316 Fab; Fab 316
B11: the Kd in assay [1] came to 1.5 nM.

B12: Fab of antibody 398 (Fab, V domains shown)
VH: QVQLVESGGGLVQPGGSLRLSCAASGFTVSSNYMTWVRQAPGKGLEWVSVIYSGGSTYYADSVKGRFTISRDNSKNTLYLQMNSLRADDTAVYYCARDSTADYDFWSGYYVGAFHIWGQGTMVTVSS
VL: QTVLTQPASVSGSPGQSITISCTGTSSDVGGYNYVSWYQQHPGKAPKLMIYEVTKRPSGVPDRFSGSKSGNTASLTVSGLQAEDEADYYCSSYAGSNNWVFGGGTKLTVL
B12 gave a Kd in assay [1] of 1.02 nM.

B13: antibody 398 (antibody, V domains shown)
VH: QVQLVESGGGLVQPGGSLRLSCAASGFTVSSNYMTWVRQAPGKGLEWVSVIYSGGSTYYADSVKGRFTISRDNSKNTLYLQMNSLRADDTAVYYCARDSTADYDFWSGYYVGAFHIWGQGTMVTVSS
VL: QTVLTQPASVSGSPGQSITISCTGTSSDVGGYNYVSWYQQHPGKAPKLMIYEVTKRPSGVPDRFSGSKSGNTASLTVSGLQAEDEADYYCSSYAGSNNWVFGGGTKLTVL
notes: also called mAb 398
B13 came in with a dissociation constant (Kd) in assay [2] of 4.63 nM. This lies in the single-digit nanomolar range.

B14: Fab of antibody 40 (Fab, V domains shown)
VH: QVQLVESGGGLVQPGGSLRLSCAVSGFTVSRNYMSWVRQAPGKGLEWVSLIYSGGSTFYADSVKGRFTISRDNSKNTLYLQMNSLRAEDTAVYYCARDLFHRSGYHDYWGQGTLVTVSS
VL: not shown
notes: also called 40 Fab; Fab 40
For the molecule B14, in assay [1], the affinity, expressed as Kd, was 0.55 nM. In other words, the sub-nanomolar range.

B15: Fab of antibody 58 (Fab, V domains shown)
VH: QVQLVESGGGLVQPGRSLRLSCAASGFTFDDYAMHWVRQPPGKGLEWVSGVSWNSGTIGYADSVKGRFIISRDNAKNSLYLQMNSLKAEDTALYYCAREVGGTFGVLISREGGLDYWGQGTLVTVSS
VL: SYELTQPPSVSVAPGQTARITCGGNTIGSKSVHWYQQRPGQAPVLVVYDDSDRPSGIPERFSGSNSGNTATLTISRVEAGDEADYYCQVWDSSSDRVVFGGGTKLTVL
Regarding B15, in assay [1], binding was put at a Kd of 0.3 nM.

B16: antibody 58 (antibody, V domains shown)
VH: QVQLVESGGGLVQPGRSLRLSCAASGFTFDDYAMHWVRQPPGKGLEWVSGVSWNSGTIGYADSVKGRFIISRDNAKNSLYLQMNSLKAEDTALYYCAREVGGTFGVLISREGGLDYWGQGTLVTVSS
VL: SYELTQPPSVSVAPGQTARITCGGNTIGSKSVHWYQQRPGQAPVLVVYDDSDRPSGIPERFSGSNSGNTATLTISRVEAGDEADYYCQVWDSSSDRVVFGGGTKLTVL
notes: also called mAb 58
In assay [2], B16 registered a Kd of 1.46 nM.

B17: Fab of antibody 222 (Fab, V domains shown)
VH: EVQLVESGGGLIQPGGSLRLSCAASGLTVSSNYMSWVRQAPGKGLEWVSVIYSGGSTFYADSVKGRFTISRDNSKNTLYLQMNSLGAEDTAVYYCARGEGSPGNWFDPWGQGTLVTVSS
VL: DVVMTQSPGTLSLSPGERATLSCRASQSVPSSYLAWYQQKPGQAPRLLIYGASTRATGIPDRFSGSGSGTDFTLTISRLEPEDFAVYYCQHYDTSPRFGGGTKVDIK
As for B17, the Kd in assay [1] stood at 0.29 nM. This counts as sub-nanomolar.

B18: antibody 253H165L (antibody, V domains shown)
VH: not shown
VL: DIVMTQSPGTLSLSPGERATLSCRASQSVRSSYLAWYQQKPGQAPRLLIYGASRRGTGIPDRFSGSGSGTDFTLTISRLEPEDFAVYYCQQYGSSPWTFGQGTKVEIK
Consider B18, for which, in assay [2], binding was put at a Kd of 3.38 nM.

B19: antibody 165 (antibody, V domains shown)
VH: QVQLVQSGPEVKKPGTSVKVSCKASGFTFTSSAVQWVRQARGQRLEWIGWIVVGSGNTNYAQKFQESVTITRDMSTSTAYMELSSLRSEDTAVYYCAAPHCIGGSCHDAFDIWGQGTMVTVSS
VL: DIVMTQSPGTLSLSPGERATLSCRASQSVRSSYLAWYQQKPGQAPRLLIYGASRRGTGIPDRFSGSGSGTDFTLTISRLEPEDFAVYYCQQYGSSPWTFGQGTKVEIK
notes: also called mAb 165
In assay [2], B19 yielded a Kd of 2.15 nM.

B20: Fab of antibody 281 (Fab, V domains shown)
VH: QVQLVESGGGLVQPGGSLRLSCAASGFPFSIYWMSWVRQAPGKGLEWVANIKQDGSEKYYVDSVKGRFTISRDNAKNSLYLHMNSLRGEDTAVYYCASRYYDFRPEAWFDYWGQGTLVTVSS
VL: not shown
Consider B20, for which the dissociation constant Kd in assay [1] amounted to 3.2 nM.

B21: antibody 281 (antibody, V domains shown)
VH: QVQLVESGGGLVQPGGSLRLSCAASGFPFSIYWMSWVRQAPGKGLEWVANIKQDGSEKYYVDSVKGRFTISRDNAKNSLYLHMNSLRGEDTAVYYCASRYYDFRPEAWFDYWGQGTLVTVSS
VL: not shown
As to B21, the dissociation constant (Kd) in assay [2] was 0.97 nM. That is a sub-nanomolar value.

B22: Fab of antibody 318 (Fab, V domains shown)
VH: QVQLVQSGPEVKKPGTSVKVSCKASGFTLTSSAMQWVRQARGQRLEWIGWIVVGSGNTNYAQKFQERVTITRDMSTSTAYMELSSLRSEDTAVYYCAAGRGYNSDFDYWGQGTLVTVSS
VL: AIRMTQSPGTLSLSPGERATLSCRASQSVSSSYLAWYQQRPGQAPRLLIYGTSSRATGIPDRFSGSGSGTDFTLTISRLEPEDFAVYYCQQYGYSVYTFGQGTKVDIK
Consider B22, for which binding in assay [1] was characterised by a dissociation constant (Kd) of 2.23 nM.

B23: antibody 318 (antibody, V domains shown)
VH: QVQLVQSGPEVKKPGTSVKVSCKASGFTLTSSAMQWVRQARGQRLEWIGWIVVGSGNTNYAQKFQERVTITRDMSTSTAYMELSSLRSEDTAVYYCAAGRGYNSDFDYWGQGTLVTVSS
VL: AIRMTQSPGTLSLSPGERATLSCRASQSVSSSYLAWYQQRPGQAPRLLIYGTSSRATGIPDRFSGSGSGTDFTLTISRLEPEDFAVYYCQQYGYSVYTFGQGTKVDIK
notes: also called mAb 318
B23: the Kd in assay [2] came to 4.43 nM.

The values are drawn from US20240043507A1 (RQ BIOTECHNOLOGY, published 2024).
